Patent publication US7745587 (DYAX, dated 2010)

Legend:
human MMP-14 = human MMP-14 (human, UniProt P50281 112-541, limits assumed); experiment: cell-based or functional assay
MMP-24 = MMP-24 (human, UniProt Q9Y5R2 156-328, limits assumed); experiment: cell-based or functional assay
Chain of MMP-24 (Q9Y5R2 156-328 limits assumed): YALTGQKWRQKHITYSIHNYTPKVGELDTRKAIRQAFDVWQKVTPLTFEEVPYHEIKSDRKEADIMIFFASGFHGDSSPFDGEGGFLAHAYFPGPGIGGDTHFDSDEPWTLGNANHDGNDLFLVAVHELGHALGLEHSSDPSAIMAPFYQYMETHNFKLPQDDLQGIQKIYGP

Binder	IC50 of MMP-14 inhibition (MMP-14 at 2 pM), Fab (human MMP-14)	MMP-24 activity, 100 nM final Fab with 5 nM MMP-24 (MMP-24)	IC50 of MMP-14 inhibition (MMP-14 at 2 pM), IgG (human MMP-14)
M0031-C02 Fab (Fab, V domains shown) VH: EVQLLESGGGLVQPGGSLRLSCAASGFTFSPYPMGWVRQAPGKGLEWVSSIVSSGGLTLYADSVKGRFTISRDNSKNTLYLQMNSLRAEDTAVYYCARGGRLYDILTGQGAPFDYWGQGTLVTVSS VL: DIQMTQSPLSLPVTPGEPASISCRSSQSLLHSNGYYYLDWYLQKPGQSPQLLIYLGSYRASGVPDRFSGSGSGTDFTLKISSVEAEDVGVYYCMQALQTPLTFGGGTRVDIK	56 nM	54 % inhibition	
M0031-C02 IgG (antibody, V domains shown) VH: EVQLLESGGGLVQPGGSLRLSCAASGFTFSPYPMGWVRQAPGKGLEWVSSIVSSGGLTLYADSVKGRFTISRDNSKNTLYLQMNSLRAEDTAVYYCARGGRLYDILTGQGAPFDYWGQGTLVTVSS VL: DIQMTQSPLSLPVTPGEPASISCRSSQSLLHSNGYYYLDWYLQKPGQSPQLLIYLGSYRASGVPDRFSGSGSGTDFTLKISSVEAEDVGVYYCMQALQTPLTFGGGTRVDIK			8 nM
M0043-G02 Fab (Fab, V domains shown) VH: EVQLLESGGGLVQPGGSLRLSCAASGFTFSWYPMFWVRQAPGKGLEWVSGIYSSGGPTDYADSVKGRFTISRDNSKNTLYLQMNSLRAEDTAVYYCAKDTLGRYYDFWSGYSYGMDVWGQGTTVTVSS VL: DIQMTQSPGTLSLSPGERATLSCRASQSVSSSYLAWYQQKPGQAPRLLIYGASSRATGIPDRFSGSGSGTDFTLTISRLEPEDFAVYYCQSGVTFGGGTKVEIK	9.3 nM	74 % inhibition	
M0038-F01 Fab (Fab, V domains shown) VH: EVQLLESGGGLVQPGGSLRLSCAASGFTFSLYSMNWVRQAPGKGLEWVSSIYSSGGSTLYADSVKGRFTISRDNSKNTLYLQMNSLRAEDTAVYYCARGRAFDIWGQGTMVTVSS VL: DIQMTQSPSSLSAFVGDKVTITCRASQSVGTYLNWYQQKAGKAPELLIYATSNLRSGVPSRFSGSGSGTDFTLTINTLQPEDFATYYCQQSYSIPRFTFGPGTKVDIK	3.8 nM		
M0033-H07 Fab (Fab, V domains shown) VH: EVQLLESGGGLVQPGGSLRLSCAASGFTFSVYGMVWVRQAPGKGLEWVSVISSSGGSTWYADSVKGRFTISRDNSKNTLYLQMNSLRAEDTALYYCARPFSRRYGVFDYWGQGTLVTVSS VL: DIQMTQSPSSLSASVGDRVTITCRASQGIRNFLAWYQQKPGKVPKLLVFGASALQSGVPSRFSGSGSGTDFTLTISGLQPEDVATYYCQKYNGVPLTFGGGTKVEIK	11.5 nM		
M0040-A11 Fab (Fab, V domains shown) VH: EVQLLESGGGLVQPGGSLRLSCAASGFTFSHYVMFWVRQAPGKGLEWVSRIVPSGGATMYADSVKGRFTISRDNSKNTLYLQMNSLRAEDTAVYYCARDRPLYDSSGYVDYWGQGTLVTVSS VL: QSALTQPPSASGSPGQSVTISCTGTSSDVGAYNYVSWYQQHPDKAPKLIIYNVNERPSGVPDRFSGSKSGNTASLTVSGLQAEDEADYYCTSYAGSNKIGVSGTGTKVTVL	23.2 nM	58 % inhibition	
M0040-A11 IgG (antibody, V domains shown) VH: EVQLLESGGGLVQPGGSLRLSCAASGFTFSHYVMFWVRQAPGKGLEWVSRIVPSGGATMYADSVKGRFTISRDNSKNTLYLQMNSLRAEDTAVYYCARDRPLYDSSGYVDYWGQGTLVTVSS VL: QSALTQPPSASGSPGQSVTISCTGTSSDVGAYNYVSWYQQHPDKAPKLIIYNVNERPSGVPDRFSGSKSGNTASLTVSGLQAEDEADYYCTSYAGSNKIGVSGTGTKVTVL			6.7 nM
M0040-A06 Fab (Fab, V domains shown) VH: EVQLLESGGGLVQPGGSLRLSCAASGFTFSYYGMYWVRQAPGKGLEWVSSISSSGGYTDYADSVKGRFTISRDNSKNTLYLQMNSLRAEDTAVYYCARRIKYYDIEGEGAFDIWGQGTMVTVSS VL: DIVMTQTPPSLPVNPGEPASISCRSSQSLLHRNGYNYLDWYLQKPGQSPQLLIHLGSYRASGVPDRFSGSGSGTDFTLKISRVEAEDVGVYYCMQPLQTPFTFGPGTKVDIK	8.6 nM	65 % inhibition	
M0040-A06 IgG (antibody, V domains shown) VH: EVQLLESGGGLVQPGGSLRLSCAASGFTFSYYGMYWVRQAPGKGLEWVSSISSSGGYTDYADSVKGRFTISRDNSKNTLYLQMNSLRAEDTAVYYCARRIKYYDIEGEGAFDIWGQGTMVTVSS VL: DIVMTQTPPSLPVNPGEPASISCRSSQSLLHRNGYNYLDWYLQKPGQSPQLLIHLGSYRASGVPDRFSGSGSGTDFTLKISRVEAEDVGVYYCMQPLQTPFTFGPGTKVDIK			1.7 nM
M0038-E06 Fab (Fab, V domains shown) VH: EVQLLESGGGLVQPGGSLRLSCAASGFTFSPYVMHWVRQAPGKGLEWVSSISPSGGWTYYADSVKGRFTISRDNSKNTLYLQMNSLRAEDMAVYYCARGTGAYGMDVWGQGTTVTVSS VL: DIQMTQSPGTLSLSPGDRATLSCGASQLVVSNYIAWYQQKPGQAPRLLMYAGSIRATGIPDRFSGSGSGTDFTLTISRLEPEDFAIYYCQQRSNWPWTFGQGTKVEIK	16.6 nM		
M0038-E06 IgG (antibody, V domains shown) VH: EVQLLESGGGLVQPGGSLRLSCAASGFTFSPYVMHWVRQAPGKGLEWVSSISPSGGWTYYADSVKGRFTISRDNSKNTLYLQMNSLRAEDMAVYYCARGTGAYGMDVWGQGTTVTVSS VL: DIQMTQSPGTLSLSPGDRATLSCGASQLVVSNYIAWYQQKPGQAPRLLMYAGSIRATGIPDRFSGSGSGTDFTLTISRLEPEDFAIYYCQQRSNWPWTFGQGTKVEIK			7.2 nM
M0039-H08 Fab (Fab, V domains shown) VH: EVQLLESGGGLVQPGGSLRLSCAASGFTFSAYNMGWVRQAPGKGLEWVSSISSSGGYTGYADSVKGRFTISRDNSKNTLYLQMNSLRAEDTAVYYCARDLYRGFDYWGQGTLVTVSS VL: DIQMTQSPATLSVSPGERATLSCRASESVKNNLAWYQQKPGQAPRLLIYGVSTRAPGIPARFSGSGSGTDFTLTISSLEPEDFAVYYCQQRSNWPPVTFGQGTRLEIK	23 nM		
M0039-H08 IgG (antibody, V domains shown) VH: EVQLLESGGGLVQPGGSLRLSCAASGFTFSAYNMGWVRQAPGKGLEWVSSISSSGGYTGYADSVKGRFTISRDNSKNTLYLQMNSLRAEDTAVYYCARDLYRGFDYWGQGTLVTVSS VL: DIQMTQSPATLSVSPGERATLSCRASESVKNNLAWYQQKPGQAPRLLIYGVSTRAPGIPARFSGSGSGTDFTLTISSLEPEDFAVYYCQQRSNWPPVTFGQGTRLEIK			7.4 nM
M0037-C09 Fab (Fab, V domains shown) VH: EVQLLESGGGLVQPGGSLRLSCAASGFTFSHYEMFWVRQAPGKGLEWVSSISPSGGQTHYADSVKGRFTISRDNSKNTLYLQMNSLRAEDTAVYYCATDRTYYDFWSGYGPLWYWGQGTLVTVSS VL: DIQMTQSPLSLPVTLGESASVSCRSSQSLLHENGHNYLDWYLQKPGQSPQLLIYLGSNRASGVPDRFSGSGSGTDFTLKISRVEAEDVGVYYCMQSLKTPPTFGPGTKVEIK	11.5 nM	72 % inhibition	
M0038-F08 Fab (Fab, V domains shown) VH: EVQLLESGGGLVQPGGSLRLSCAASGFTFSRYKMWWVRQAPGKGLEWVSGIRPSGGLTRYADSVKGRFTISRDNSKNTLYLQMNSLRAEDTAVYYCARRGDYVGGFDYWGQGTLVTVSS VL: DIQMTQSPGTLSLSPGERATLSCRASQSVSSSYLAWYQQKPGQAPRLLIYGASSRATGIPDRFSGSGSGTDFTLTISRLEPEDFAVYYCQHYGGSQAFGGGTKVEIK	31.1 nM		
M0038-F08 IgG (antibody, V domains shown) VH: EVQLLESGGGLVQPGGSLRLSCAASGFTFSRYKMWWVRQAPGKGLEWVSGIRPSGGLTRYADSVKGRFTISRDNSKNTLYLQMNSLRAEDTAVYYCARRGDYVGGFDYWGQGTLVTVSS VL: DIQMTQSPGTLSLSPGERATLSCRASQSVSSSYLAWYQQKPGQAPRLLIYGASSRATGIPDRFSGSGSGTDFTLTISRLEPEDFAVYYCQHYGGSQAFGGGTKVEIK			23 nM
M0031-F01 Fab (Fab, V domains shown) VH: EVQLLESGGGLVQPGGSLRLSCAASGFTFSTYEMHWVRQAPGKGLEWVSSIYSSGGWTGYADSVKGRFTISRDNSKNTLYLQMNSLRAEDTAVYYCARSQQYYDFSSRYYGMDVWGQGTTVTVSS VL: QSELTQPPSVSGTPGQRVTISCSGTSANIGRNAVHWYQQLPGTAPKLLIHSNNRRPSGVPDRFSGSKSGTSASLAISGLQSEDEADYYCAAWENSLNAFYVFGTGTKVTVL	25.3 nM		
M0031-F01 IgG (antibody, V domains shown) VH: EVQLLESGGGLVQPGGSLRLSCAASGFTFSTYEMHWVRQAPGKGLEWVSSIYSSGGWTGYADSVKGRFTISRDNSKNTLYLQMNSLRAEDTAVYYCARSQQYYDFSSRYYGMDVWGQGTTVTVSS VL: QSELTQPPSVSGTPGQRVTISCSGTSANIGRNAVHWYQQLPGTAPKLLIHSNNRRPSGVPDRFSGSKSGTSASLAISGLQSEDEADYYCAAWENSLNAFYVFGTGTKVTVL			15.2 nM
M0037-D01 Fab (Fab, V domains shown) VH: EVQLLESGGGLVQPGGSLRLSCAASGFTFSMYMMIWVRQAPGKGLEWVSSIYPSGGNTMYADSVKGRFTISRDNSKNTLYLQMNSLRAEDTAVYYCATGVLRYFDWDAGSGMDVWGQGTTVTVSS VL: DIQMTQSPSSLSASVGDRVTITCRASQGIRNDLGWYQQKPGKAPKRLIYVASSLQSGVPSRFSGSGSGTEFTLTISSLQPEDFATYYCLQHNSYPWTFGQGTKVEIK	4.3 nM		
